For this assay, the target named is His×6-Okp1 (budding yeast, UniProt P53298 1-406). Put plainly: pull-down.

The text below walks through data of paper doi:10.1101/515924 (bioRxiv, 2019).

Chain of His×6-Okp1 (P53298 whole entry): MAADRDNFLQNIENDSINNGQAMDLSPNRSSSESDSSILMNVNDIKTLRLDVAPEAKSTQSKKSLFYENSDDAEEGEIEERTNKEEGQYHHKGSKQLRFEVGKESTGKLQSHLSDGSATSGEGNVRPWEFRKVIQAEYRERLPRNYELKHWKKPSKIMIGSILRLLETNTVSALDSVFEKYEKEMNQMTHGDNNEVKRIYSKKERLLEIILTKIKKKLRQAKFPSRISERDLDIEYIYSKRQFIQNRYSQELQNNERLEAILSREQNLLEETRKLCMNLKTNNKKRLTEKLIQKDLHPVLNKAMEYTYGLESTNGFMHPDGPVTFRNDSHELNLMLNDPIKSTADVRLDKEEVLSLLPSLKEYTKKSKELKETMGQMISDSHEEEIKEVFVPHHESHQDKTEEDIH

B1: GST-Sli15 (1-401) (domain or fragment)
chain: MDWAIKAARKKTQRKPGSTRSIIETLDDLNNLTTDAHSEINQRLYESSEWLRNNVYMNTLKYEDKKMEESLISPENTHNKMDVEFPKMKGEYELSNSQNDAAKDVTKTPRNGLHNDKSITPKSLRRKEVTEGMNRFSIHDTNKSPVEPLNSVKVDANESEKSSPWSPYKVEKVLRESSKTSESPINTKRFDNQTWAAKEEMENEPILQALKKAESVKVKPPPNSGIARSQRRSNMFVPLPNKDPLIIQHIPPTKSSGSIPKVRTVKESPIAFKKKSTINSPAIRAVENSDTAGSTKASSVFDRLSSIPTKSFENKISRGNVGHKYSSSSIDLTGSPMKKVSQKFKSINSTDTDMQEALRDIFSVKNKITKNNSPKGKNSRKSSIPRFDKTSLKLTTHKKLA
Regarding B1, the binding result was “binds”.
